Laboratory results taken from patent US20200283483A1 (TECHNISCHE UNIVERSITAET MUENCHEN, published 2020).
Square brackets hold non-standard residues; d marks the D form. dNMeF = CN[C@H](Cc1ccccc1)C(=O)O; NMeA = CN[C@@H](C)C(=O)O

Assays:
human αvβ5-integrin = target: T1, human αvβ5-integrin (human, UniProt P06756 31-992; P18084 24-719, limits assumed); experiment: solid-phase competition ELISA, soluble αvβ5 on coated vitronectin
T1 construct: soluble integrin bought from Millipore

human αvβ6-Integrin = target: T2, human αvβ6-Integrin (human, UniProt P06756 31-992; P18564 22-707); experiment: solid-phase competition ELISA, soluble αvβ6 on coated LAP (TGF-β)
T2 construct: soluble integrin bought from R&D
T2 sequence (P06756 31-992 limits assumed, chain 1 of 2): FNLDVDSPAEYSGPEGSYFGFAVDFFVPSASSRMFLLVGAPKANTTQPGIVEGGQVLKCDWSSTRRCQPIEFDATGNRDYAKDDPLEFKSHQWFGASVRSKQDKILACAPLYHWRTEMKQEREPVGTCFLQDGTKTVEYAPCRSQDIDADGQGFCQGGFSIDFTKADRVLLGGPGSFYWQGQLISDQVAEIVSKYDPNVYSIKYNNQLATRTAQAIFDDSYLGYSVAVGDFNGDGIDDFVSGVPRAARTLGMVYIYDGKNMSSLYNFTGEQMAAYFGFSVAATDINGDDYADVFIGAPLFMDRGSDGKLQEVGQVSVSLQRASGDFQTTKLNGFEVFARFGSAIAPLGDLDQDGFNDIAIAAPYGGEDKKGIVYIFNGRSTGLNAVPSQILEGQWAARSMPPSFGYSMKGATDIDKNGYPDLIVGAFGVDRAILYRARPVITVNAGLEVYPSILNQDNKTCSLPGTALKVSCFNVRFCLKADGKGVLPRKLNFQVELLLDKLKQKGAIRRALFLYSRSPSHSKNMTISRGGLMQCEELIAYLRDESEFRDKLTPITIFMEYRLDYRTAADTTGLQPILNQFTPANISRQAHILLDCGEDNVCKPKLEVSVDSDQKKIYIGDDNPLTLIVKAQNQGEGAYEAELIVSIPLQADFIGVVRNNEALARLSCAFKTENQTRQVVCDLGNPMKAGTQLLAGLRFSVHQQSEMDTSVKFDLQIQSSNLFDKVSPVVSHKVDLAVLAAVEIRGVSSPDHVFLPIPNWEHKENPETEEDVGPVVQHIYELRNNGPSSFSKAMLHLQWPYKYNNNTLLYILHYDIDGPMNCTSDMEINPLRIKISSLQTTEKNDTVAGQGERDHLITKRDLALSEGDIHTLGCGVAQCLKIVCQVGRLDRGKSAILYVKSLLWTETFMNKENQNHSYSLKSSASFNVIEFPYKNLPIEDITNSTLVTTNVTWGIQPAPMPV
T2 sequence (P18564 22-707 limits assumed, chain 2 of 2): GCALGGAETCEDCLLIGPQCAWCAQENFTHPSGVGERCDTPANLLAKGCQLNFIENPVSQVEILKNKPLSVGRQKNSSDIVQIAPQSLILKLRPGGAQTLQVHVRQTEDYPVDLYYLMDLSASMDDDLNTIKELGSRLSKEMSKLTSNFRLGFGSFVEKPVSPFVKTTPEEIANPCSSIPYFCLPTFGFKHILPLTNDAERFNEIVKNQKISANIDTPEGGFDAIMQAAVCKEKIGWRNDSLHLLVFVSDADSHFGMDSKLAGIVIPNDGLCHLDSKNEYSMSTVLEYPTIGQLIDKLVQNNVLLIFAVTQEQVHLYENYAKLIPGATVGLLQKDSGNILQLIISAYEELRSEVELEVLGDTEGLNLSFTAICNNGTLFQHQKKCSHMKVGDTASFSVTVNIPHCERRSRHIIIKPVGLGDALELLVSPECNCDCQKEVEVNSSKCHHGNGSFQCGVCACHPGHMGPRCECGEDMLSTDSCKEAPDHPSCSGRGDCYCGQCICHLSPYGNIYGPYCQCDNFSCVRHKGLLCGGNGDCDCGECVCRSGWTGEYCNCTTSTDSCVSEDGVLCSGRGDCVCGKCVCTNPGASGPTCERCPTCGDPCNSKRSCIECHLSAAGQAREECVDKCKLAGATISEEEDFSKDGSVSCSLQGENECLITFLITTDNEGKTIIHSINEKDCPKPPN

human αvβ3-integrin = target: T3, human αvβ3-integrin (human, UniProt P06756 31-992; P05106 27-718); experiment: solid-phase competition ELISA, soluble αvβ3 on coated vitronectin
T3 construct: soluble integrin bought from R&D; also called integrin αvβ3
T3 sequence (P06756 31-992 limits assumed, chain 1 of 2): as the sequence (P06756 31-992 limits assumed, chain 1 of 2) above
T3 sequence (P05106 27-718 limits assumed, chain 2 of 2): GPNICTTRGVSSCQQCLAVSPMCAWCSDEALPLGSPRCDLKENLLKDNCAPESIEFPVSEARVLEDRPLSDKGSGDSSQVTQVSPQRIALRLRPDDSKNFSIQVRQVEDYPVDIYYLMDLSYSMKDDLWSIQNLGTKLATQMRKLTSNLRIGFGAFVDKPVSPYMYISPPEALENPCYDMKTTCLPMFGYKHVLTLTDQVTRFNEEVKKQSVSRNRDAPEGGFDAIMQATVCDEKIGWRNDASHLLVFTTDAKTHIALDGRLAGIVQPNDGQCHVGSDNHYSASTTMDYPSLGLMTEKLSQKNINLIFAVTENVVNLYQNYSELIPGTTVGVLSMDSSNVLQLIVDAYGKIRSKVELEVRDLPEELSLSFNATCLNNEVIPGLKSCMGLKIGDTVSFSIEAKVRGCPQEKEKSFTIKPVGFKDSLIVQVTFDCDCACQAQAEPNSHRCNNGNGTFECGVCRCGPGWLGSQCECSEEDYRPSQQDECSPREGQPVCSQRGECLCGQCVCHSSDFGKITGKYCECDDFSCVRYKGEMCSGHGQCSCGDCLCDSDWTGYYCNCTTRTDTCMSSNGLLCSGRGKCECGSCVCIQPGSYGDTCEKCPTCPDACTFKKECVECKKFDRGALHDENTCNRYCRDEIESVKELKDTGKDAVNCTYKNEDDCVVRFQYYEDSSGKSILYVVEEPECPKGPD

T1 sequence (P06756 31-992 limits assumed, chain 1 of 2): as the sequence (P06756 31-992 limits assumed, chain 1 of 2) above
T1 sequence (P18084 24-719 limits assumed, chain 2 of 2): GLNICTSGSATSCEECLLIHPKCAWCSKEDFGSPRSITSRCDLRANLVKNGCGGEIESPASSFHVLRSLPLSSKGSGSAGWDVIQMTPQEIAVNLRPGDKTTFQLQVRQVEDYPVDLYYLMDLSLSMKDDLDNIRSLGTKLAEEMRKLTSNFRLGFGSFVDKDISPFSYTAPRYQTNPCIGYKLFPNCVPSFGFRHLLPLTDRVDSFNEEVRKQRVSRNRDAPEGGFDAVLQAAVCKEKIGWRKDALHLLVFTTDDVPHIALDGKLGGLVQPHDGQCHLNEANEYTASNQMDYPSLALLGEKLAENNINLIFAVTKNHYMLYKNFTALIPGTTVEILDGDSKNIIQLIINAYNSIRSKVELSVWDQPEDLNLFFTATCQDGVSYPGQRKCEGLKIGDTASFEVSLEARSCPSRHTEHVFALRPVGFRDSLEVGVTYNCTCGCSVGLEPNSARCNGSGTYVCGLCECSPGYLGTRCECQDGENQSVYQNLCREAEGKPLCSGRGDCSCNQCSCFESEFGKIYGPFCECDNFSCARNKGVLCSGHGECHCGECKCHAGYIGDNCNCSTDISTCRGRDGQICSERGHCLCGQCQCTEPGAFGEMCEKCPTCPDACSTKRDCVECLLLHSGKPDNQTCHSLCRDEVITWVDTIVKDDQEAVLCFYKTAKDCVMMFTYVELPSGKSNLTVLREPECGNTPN

B1: peptide #30 c(*fRGDA*A) (peptide)
peptide: cyclo([dNMeF]RGDA[NMeA])
notes: scaffold NMe(1,6)
Human αvβ5-integrin
  IC50: 145 nM
Human αvβ6-Integrin
  IC50: 120 nM
Human αvβ3-integrin
  IC50: 0.6 nM
